The results in this text go back to the RNAGym collection of RNA variant scans (doi:10.7554/elife.80360).

The chains are these.
B1: CPEB3 Ribozyme (parent)
chain: GGGGGCCACAGCAGAAGCGUUCACGUCGCGGCCCCUGUCAGAUUCUGGUGAAUCUGCGAAUUCUGCUGU

This series covers variants of B1. Nature of the series: self-cleavage, relative activity (ratio to wild type); higher = more cleavage; co-transcriptional.
As to C18G G58C, the self-cleavage was 0.154.
For the variant C18G G56U, the self-cleavage is 0.128.
As for G17U C63A, the self-cleavage was found to be 0.182.
Take G17U C63U: the self-cleavage was 0.322.
With G17U C63G, the self-cleavage was determined as 0.229.
With G17U G65A, the self-cleavage was found to be 0.254.
Turning to G17U G65U, the self-cleavage was determined as 0.292.
Next, G17U C29U: 0.268; G17U C29A: 0.921.
G17U C29G: the self-cleavage stood at 0.885.
On to C18G G30U, for which the self-cleavage was 0.183.
With C18G G30A, the self-cleavage was found to be 0.236.
Turning to C18G G30C, the self-cleavage was 0.167.
To G17U U69C belongs 0.874.
With G17U U55G, the self-cleavage stood at 0.238.
With G17U U55A, the self-cleavage was found to be 0.177.
Regarding C18A U46A, the self-cleavage amounted to 0.217.
Take C18A U46G: the self-cleavage is 0.219.
Next, G17U C27G: 0.185.
Take G17U C27A: the self-cleavage was found to be 0.132.
Next, C18G U44A: 0.116.
Take C18G U46C: the self-cleavage was 0.15.
For C18G U46A, the self-cleavage is 0.227.
With C18A A40U, the self-cleavage was 0.0764.
C18A A40G: the self-cleavage was 0.176.
Next, G17U C35A: 0.214; G17U C35U: 0.338; G17U C35G: 0.227.
As for G17U C54G, the self-cleavage was determined as 0.166.
Next, C18G A23C: 0.187; C18A U67G: 0.348; C18A U67A: 0.268.
To C18A U67C belongs 0.23; to G17U U62A, 0.281.
Next, G17U U62G: 0.316; G17U U62C: 0.23; G17U G56U: 0.2.
On to G17U G56A, for which the self-cleavage came out at 0.32.
As for G17U G56C, the self-cleavage is 0.219.
For the variant G17U G58C, the self-cleavage was 0.527.
For G17U G58U, the self-cleavage was 0.65.
Consider C18A A52U, for which the self-cleavage was 0.258.
Turning to C18A A52G, the self-cleavage worked out at 0.201.
With G17U G68A, the self-cleavage turned out to be 0.875.
For the variant C18G G19A, the self-cleavage came to 0.114.
To C18G G19U belongs 0.153; to C18U C35A, 0.24; to C18G U64C, 0.1.
For the variant C18G U64G, the self-cleavage was 0.159.
With C18G U64A, the self-cleavage was determined as 0.228.
Consider C18A U55A, for which the self-cleavage came out at 0.142.
C18A U55G: the self-cleavage was 0.113.
With C18G U26A, the self-cleavage is 0.119.
For the variant C18G U26G, the self-cleavage was 0.267.
As for C18G U26C, the self-cleavage amounted to 0.175.
As for C18G C45A, the self-cleavage was determined as 0.0664.
With C18G C45U, the self-cleavage amounted to 0.183.
In the case of C18G C45G, the self-cleavage is 0.113.
To C18G G48A belongs 0.145; to C18G G48C, 0.17.
Next, C18G G48U: 0.208; C18A G37A: 0.14; C18A G37U: 0.121.
With G17U C57U, the self-cleavage came to 0.228.
To C18U C34A belongs 0.352; to C18A C54U, 0.173; to C18A C54G, 0.179.
In the case of C18A C39G, the self-cleavage was determined as 0.142.
As for C18A C39U, the self-cleavage stood at 0.136.
To C18A C39A belongs 0.156.
Take G17U A52C: the self-cleavage was determined as 0.5.
On to G17U A52G, for which the self-cleavage was 0.585.
Next, C18G C24A: 0.105.
For C18A G50C, the self-cleavage worked out at 0.208.
In the case of C18A G50A, the self-cleavage stood at 0.191.
For the variant C18A G50U, the self-cleavage stood at 0.284.
Take C18G U21C: the self-cleavage was determined as 0.219.
To C18G U21G belongs 0.174; to C18G G68C, 0.21; to C18G G68A, 0.403.
Take C18U C27A: the self-cleavage was 0.198.
Regarding C18U C27U, the self-cleavage turned out to be 0.121.
With C18U C27G, the self-cleavage was found to be 0.194.
In the case of C18A G19C, the self-cleavage turned out to be 0.0974.
In the case of C18A G19U, the self-cleavage was determined as 0.12.
In the case of G17U G48C, the self-cleavage came to 0.635.
Turning to G17U G48U, the self-cleavage is 0.694.
To G17U U38A belongs 0.255.
Consider G17U U38G, for which the self-cleavage was determined as 0.149.
Next, C18A U53C: 0.169; C18G U53A: 0.177; C18G U53G: 0.199.
Consider C18G U53C, for which the self-cleavage came to 0.0868.
Take G17U U21G: the self-cleavage came to 0.0999.
Consider G17U U21A, for which the self-cleavage is 0.367.
On to C18G C27A, for which the self-cleavage came to 0.16.
With C18G C27G, the self-cleavage is 0.224.
To C18G C57U belongs 0.145.
Next, C18G C57A: 0.0895.
With C18G A60U, the self-cleavage was found to be 0.154.
On to C18G A60C, for which the self-cleavage was determined as 0.0758.
Regarding C18G A60G, the self-cleavage worked out at 0.137.
To C18A C33U belongs 0.251; to C18A C33G, 0.123.
Consider C18A U43A, for which the self-cleavage is 0.117.
For C18A U43G, the self-cleavage is 0.117.
Regarding G17U G41C, the self-cleavage is 0.14.
With G17U G41U, the self-cleavage is 0.194.
G17U G41A: the self-cleavage was found to be 0.152.
Regarding C18A U36C, the self-cleavage amounted to 0.142.
Turning to C18A U36A, the self-cleavage came to 0.182.
Next, C18A U20C: 0.158; C18A U49G: 0.259.
As to G17U G25A, the self-cleavage was 0.143.
Take G17U G25C: the self-cleavage came out at 0.107.
Consider C18A C29G, for which the self-cleavage was found to be 0.15.
For C18G U49C, the self-cleavage turned out to be 0.147.
To C18G U49G belongs 0.217; to C18U A42G, 0.579.
Take C18U A42C: the self-cleavage was 0.556.
Turning to C18G U20C, the self-cleavage worked out at 0.0509.
As for C18G U20G, the self-cleavage is 0.218.
Consider C18U A59G, for which the self-cleavage was found to be 0.793.
Regarding C18A C22G, the self-cleavage turned out to be 0.159.
Consider C18A C22U, for which the self-cleavage was 0.0813.
Consider C18A C22A, for which the self-cleavage amounted to 0.144.
Consider C18A G30C, for which the self-cleavage came to 0.133.
Regarding C18A G30A, the self-cleavage came to 0.117.
C18A G30U: the self-cleavage came to 0.132.
With C18A G25C, the self-cleavage worked out at 0.178.
Next, C18A G25U: 0.0886; G17U C24U: 0.179.
Regarding G17U C24A, the self-cleavage amounted to 0.133.
As to G17U C24G, the self-cleavage came to 0.0814.
As to C18A A51U, the self-cleavage was 0.181.
To C18A A51G belongs 0.233.
Consider C18G U38C, for which the self-cleavage turned out to be 0.234.
For the variant C18G U38G, the self-cleavage was 0.155.
Next, C18G C63A: 0.179; C18G C63U: 0.136.
Turning to C18A A42U, the self-cleavage was found to be 0.0858.
C18A A42C: the self-cleavage was 0.166.
C18A G47C: the self-cleavage is 0.181.
Consider C18A G47U, for which the self-cleavage is 0.203.
Next, C18A G47A: 0.232; C18G G28C: 0.911; C18G G28U: 0.129.
With G17U C45G, the self-cleavage was 0.395.
G17U C45U: the self-cleavage worked out at 0.528.
Next, C18G A40U: 0.167; C18G A40C: 0.152.
Take G17U C39G: the self-cleavage was determined as 0.289.
Consider G17U C39A, for which the self-cleavage came out at 0.167.
On to C18A U26A, for which the self-cleavage stood at 0.128.
For C18G U61G, the self-cleavage was determined as 0.144.
As for C18G U61C, the self-cleavage stood at 0.209.
As for C18A G48U, the self-cleavage was found to be 0.186.
Next, C18G U43C: 0.188; C18G U43G: 0.0435; C18G U43A: 0.114.
With C18G U62C, the self-cleavage was 0.122.
Turning to C18G U62A, the self-cleavage came to 0.142.
Take C18A G58U: the self-cleavage worked out at 0.184.
Consider C18A G58A, for which the self-cleavage was determined as 0.155.
Next, C18A: 0.2.
Consider C18U, for which the self-cleavage amounted to 0.926.
Take C18G: the self-cleavage stood at 0.188.
